Measured values taken from US10001489B2, “Method for constructing a novel affinity peptide library for binding immunoglobulin G based on a protein affinity model of protein A” (TIANJIN UNIVERSITY, priority 2012, dated 2018).
Where no end group is shown, it is not given here.

Legend:
[1] = target: bovine serum albumin (BSA) (Bos taurus, UniProt P02769); assay: Affinity chromatography, BSA on peptide-coupled Thiopropyl Sepharose 6B column; type: binding
Procedure: (§1) Peptide powders purchased from GL Biochem Ltd. (Shanghai, China) had been purified by high performance liquid chromatography (HPLC) with a purity of 96.36%. 1 g of resin (Thiopropyl Sepharose 6B, purchased from GE Healthcare) was weighed and washed for 15 min with 200 mL of deionized water in a buchner funnel. After being filtered and getting rid of water, two aliquots of 1.0 g of drained gel were transferred into two 25-mL Erlenmeyer flasks, respectively. Then 6 mL and 10.7 mL of linking buffer (0.1 M Tris-HCl, pH 7.5, 0.5 M NaCl and 1 mM EDTA) were added to the two flasks respectively, to fully pre-equilibrate the gels. […] The peptides were fully mixed with the gels in corresponding flasks and initial peptide concentrations of 1.0 mg/mL were obtained. The mixtures were reacting in a shaking bath at a rate of 180 rpm, at 25° C. for 2 h. 500 μL of supernatant was acquired each hour for analyzing the residue peptide content in the reaction solution with reversed-phase high pressure liquid chromatography (RP-HPLC). […] After the reaction was finished, the reaction system was centrifuged and the supernatant was removed, then the gel was washed repeatedly with washing buffer (10 mM PBS, pH 7.2, 150 mM NaCl) in a buchner funnel to get rid of the free peptides. Finally, equilibriation buffer (20 mmol/L citrate buffers, pH 5.0-5.5; or 20 mmol/L PBS buffers, pH 5.5-6.0) was used to suspend the gel to 1 mL, and after being degassed, the gel was slowly loaded into the glass column (Tricorn chromatogram column, Tricorn 5×5, GE healthcare). The column was first washed with equilibration buffer at 0.1 mL/min, and then the speed of the buffer was increased to 0.2 mL/min when the column pressure was stable, and the speed of the buffer was increased according to above operation till it reached 1.0 mL/min.
(1) Equilibration: the affinity column was washed with equilibration buffer until a stable baseline was reached. The flow rate of buffer was 0.5 mL/min, keep washing another five column volumes (CVs) before sample injection.
(2) Sample injection: unless specifically stated, all protein samples were prepared by equilibration buffer. After sample injection, the column was equilibrated with 5-10 CVs of equilibration buffer (20 mmol/L citrate buffer, pH≤5.5; or 20 mmol/L PBS buffer, pH≥5.5). The sample loading amount was 100 μL, protein sample concentration was 1.0 mg/mL, and the flow rate was 0.5 mL/min.
(3) Elution: the column was washed with 5-10 CVs of elution buffer, and the flow rate was 0.8 mL/min.
(4) Storage: first 10 CVs of deionized water was used to wash the column, followed by another 10 CVs of 20% ethanol solution. Then the affinity gel was stored in this solution. All buffers should be filtered through a filter and degassed before use.

hIgG = assay: Affinity chromatography, pulse injection of hIgG on peptide-coupled Thiopropyl Sepharose 6B column; type: binding, human
Procedure: as §1
(1) Equilibration: the affinity column was washed with equilibration buffer until a stable baseline was reached. The flow rate of buffer was 0.5 mL/min, keep washing another five column volumes (CVs) before sample injection. […]

[2] = target: bovine serum albumin (bovine) (UniProt P02769); assay: affinity chromatography, peptide immobilized on Thiopropyl Sepharose 6B, pH 6.0
[3] = target: bovine serum albumin (bovine) (UniProt P02769); assay: affinity chromatography, peptide immobilized on Thiopropyl Sepharose 6B, pH 5.5

Chain of bovine serum albumin (BSA) (P02769 25-607): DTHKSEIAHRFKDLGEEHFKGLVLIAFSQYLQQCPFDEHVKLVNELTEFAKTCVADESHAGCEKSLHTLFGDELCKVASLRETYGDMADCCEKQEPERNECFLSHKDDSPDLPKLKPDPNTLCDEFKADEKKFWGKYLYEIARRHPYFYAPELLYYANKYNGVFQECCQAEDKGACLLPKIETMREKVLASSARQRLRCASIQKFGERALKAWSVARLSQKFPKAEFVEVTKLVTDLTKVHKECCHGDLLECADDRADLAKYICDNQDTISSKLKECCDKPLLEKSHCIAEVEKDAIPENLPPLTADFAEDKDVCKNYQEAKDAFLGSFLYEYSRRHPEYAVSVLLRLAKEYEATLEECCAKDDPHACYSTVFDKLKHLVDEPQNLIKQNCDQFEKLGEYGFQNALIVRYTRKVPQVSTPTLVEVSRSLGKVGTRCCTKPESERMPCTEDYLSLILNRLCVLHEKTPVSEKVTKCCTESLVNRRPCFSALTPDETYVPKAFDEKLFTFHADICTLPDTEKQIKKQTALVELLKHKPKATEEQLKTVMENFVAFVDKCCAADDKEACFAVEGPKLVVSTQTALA
Chain of bovine serum albumin (bovine) (P02769 25-607 limits assumed): as the sequence (P02769 25-607) above

Row | binding of BSA by immobilised peptide ligand ([1]; pH 5.5) | binding of BSA by immobilised peptide ligand (fraction of BSA bound) ([1]; pH 6.0) | binding of BSA by immobilised peptide ligand ([1]; pH 6.5) | binding of hIgG by immobilised peptide ligand (hIgG; pH 5.5-7.0) | binding of hIgG by immobilised peptide ligand (hIgG; pH 6.0, 20 mM PBS) | fraction of loaded protein bound (fraction of BSA) [2] | fraction of loaded protein bound (fraction of BSA) [3] | binding of hIgG by immobilised peptide ligand (hIgG; pH 5.0-6.0) | Sequence
1 | about half | ⅓ | trace | could bind a lot of hIgGs | could bind almost all hIgGs | – | – | – | FYCHWALE (not fully specified (residue 3)) [synthesized and immobilized on Thiopropyl Sepharose 6B]
2 | – | – | – | – | – | 0.333 | 0.5 | – | FYCHWALE peptide ligand
3 | large binding | – | – | – | – | – | – | strong binding | FYWHCLDE (not fully specified (residue 5)) [synthesized and immobilized on Thiopropyl Sepharose 6B]
